How the values were obtained:
Experiment in all cases: pull-down
[1] = molecular target: T1, BRM-3 (C-terminal domain of the BAS-type SWI/SNF chromatin remodeler BRM, 1,596-2,193 aa) (Arabidopsis thaliana, UniProt Q6EVK6 1596-2193)
T1 sequence (looked up): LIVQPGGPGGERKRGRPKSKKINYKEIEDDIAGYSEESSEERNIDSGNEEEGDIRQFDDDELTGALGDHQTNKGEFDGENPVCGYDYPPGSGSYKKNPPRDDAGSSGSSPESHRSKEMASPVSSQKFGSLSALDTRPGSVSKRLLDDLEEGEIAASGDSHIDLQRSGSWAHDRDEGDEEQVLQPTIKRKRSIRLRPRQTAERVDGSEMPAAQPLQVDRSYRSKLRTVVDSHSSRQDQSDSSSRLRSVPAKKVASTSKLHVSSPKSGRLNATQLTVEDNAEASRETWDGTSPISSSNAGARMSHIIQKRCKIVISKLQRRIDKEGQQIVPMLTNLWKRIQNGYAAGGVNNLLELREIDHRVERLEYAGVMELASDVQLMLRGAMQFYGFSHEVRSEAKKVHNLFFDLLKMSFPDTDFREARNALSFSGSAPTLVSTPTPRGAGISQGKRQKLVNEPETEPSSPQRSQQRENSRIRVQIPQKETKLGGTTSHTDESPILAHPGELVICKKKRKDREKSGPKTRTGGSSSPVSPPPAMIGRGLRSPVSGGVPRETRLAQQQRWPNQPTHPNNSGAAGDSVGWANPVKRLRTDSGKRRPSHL

[2] = molecular target: T2, GATA1 (recombinant, pull-down) (Arabidopsis thaliana, UniProt Q8LAU9 1-274)
T2 sequence (looked up): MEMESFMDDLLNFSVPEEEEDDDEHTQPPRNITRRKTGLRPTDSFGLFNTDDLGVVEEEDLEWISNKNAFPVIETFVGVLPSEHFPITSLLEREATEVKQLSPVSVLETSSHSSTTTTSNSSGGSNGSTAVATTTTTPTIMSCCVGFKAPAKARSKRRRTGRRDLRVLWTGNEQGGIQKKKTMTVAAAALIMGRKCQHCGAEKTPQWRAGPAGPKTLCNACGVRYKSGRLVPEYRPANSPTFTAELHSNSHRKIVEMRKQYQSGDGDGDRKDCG

[3] = molecular target: T3, VAL1 (recombinant, pull-down) (Arabidopsis thaliana, UniProt Q8W4L5 1-790)
T3 sequence (looked up): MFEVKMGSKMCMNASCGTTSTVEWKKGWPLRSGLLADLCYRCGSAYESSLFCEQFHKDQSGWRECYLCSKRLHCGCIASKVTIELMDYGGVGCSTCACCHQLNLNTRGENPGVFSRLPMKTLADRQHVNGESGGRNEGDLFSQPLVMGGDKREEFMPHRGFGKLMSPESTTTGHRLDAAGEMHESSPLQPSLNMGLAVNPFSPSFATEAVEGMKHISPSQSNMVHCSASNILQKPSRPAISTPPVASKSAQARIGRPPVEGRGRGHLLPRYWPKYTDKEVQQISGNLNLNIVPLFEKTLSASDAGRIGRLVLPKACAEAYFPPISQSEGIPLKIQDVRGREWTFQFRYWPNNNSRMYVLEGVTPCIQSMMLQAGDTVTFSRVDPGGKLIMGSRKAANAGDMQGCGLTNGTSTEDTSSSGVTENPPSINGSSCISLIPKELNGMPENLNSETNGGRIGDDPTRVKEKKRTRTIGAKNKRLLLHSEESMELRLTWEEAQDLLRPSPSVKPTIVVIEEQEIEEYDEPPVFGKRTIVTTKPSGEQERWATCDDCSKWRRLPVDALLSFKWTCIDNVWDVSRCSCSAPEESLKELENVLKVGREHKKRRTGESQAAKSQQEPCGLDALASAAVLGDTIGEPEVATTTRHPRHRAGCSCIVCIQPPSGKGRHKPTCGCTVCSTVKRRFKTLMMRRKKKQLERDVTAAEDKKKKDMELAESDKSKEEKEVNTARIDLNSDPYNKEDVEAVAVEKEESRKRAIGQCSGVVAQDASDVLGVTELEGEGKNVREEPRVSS

[4] = molecular target: T4, HDA19 (HDAC catalytic subunit) (Arabidopsis thaliana, UniProt O22446 1-501)
T4 sequence (looked up): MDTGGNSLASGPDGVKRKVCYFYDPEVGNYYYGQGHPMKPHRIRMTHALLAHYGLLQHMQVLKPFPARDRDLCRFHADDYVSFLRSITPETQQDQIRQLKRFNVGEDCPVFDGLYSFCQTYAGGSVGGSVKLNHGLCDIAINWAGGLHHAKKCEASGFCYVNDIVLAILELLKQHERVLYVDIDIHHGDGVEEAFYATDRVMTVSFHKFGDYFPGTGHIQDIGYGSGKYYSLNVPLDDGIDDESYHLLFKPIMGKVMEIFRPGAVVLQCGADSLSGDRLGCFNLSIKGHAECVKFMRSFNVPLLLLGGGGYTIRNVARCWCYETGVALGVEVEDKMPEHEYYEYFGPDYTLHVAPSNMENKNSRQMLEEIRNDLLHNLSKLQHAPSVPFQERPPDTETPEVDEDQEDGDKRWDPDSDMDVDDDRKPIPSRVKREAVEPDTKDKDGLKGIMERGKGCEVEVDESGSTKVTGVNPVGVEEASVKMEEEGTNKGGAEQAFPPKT

[5] = molecular target: T5, RING1A (recombinant, pull-down) (Arabidopsis thaliana, UniProt Q9FKW0 1-522)
T5 sequence (looked up): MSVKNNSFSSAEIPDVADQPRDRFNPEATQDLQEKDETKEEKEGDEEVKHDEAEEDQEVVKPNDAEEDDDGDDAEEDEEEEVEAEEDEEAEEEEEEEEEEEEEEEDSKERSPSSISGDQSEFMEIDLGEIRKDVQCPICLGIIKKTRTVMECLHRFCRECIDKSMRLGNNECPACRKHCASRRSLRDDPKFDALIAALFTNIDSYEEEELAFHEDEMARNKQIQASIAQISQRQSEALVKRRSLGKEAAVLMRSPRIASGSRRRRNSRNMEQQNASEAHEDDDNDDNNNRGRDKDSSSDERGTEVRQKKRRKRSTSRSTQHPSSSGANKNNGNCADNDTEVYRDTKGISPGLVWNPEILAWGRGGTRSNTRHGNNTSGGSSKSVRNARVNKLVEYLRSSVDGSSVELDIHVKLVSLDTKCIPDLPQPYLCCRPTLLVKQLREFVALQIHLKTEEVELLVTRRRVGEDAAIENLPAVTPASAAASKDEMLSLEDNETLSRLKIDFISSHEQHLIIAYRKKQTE

[6] = molecular target: T6, MINU2-3 (C-terminal domain of the MAS catalytic enzyme MINU2, 677-1,064 aa) (Arabidopsis thaliana, UniProt F4K128 677-1064)
T6 sequence (looked up): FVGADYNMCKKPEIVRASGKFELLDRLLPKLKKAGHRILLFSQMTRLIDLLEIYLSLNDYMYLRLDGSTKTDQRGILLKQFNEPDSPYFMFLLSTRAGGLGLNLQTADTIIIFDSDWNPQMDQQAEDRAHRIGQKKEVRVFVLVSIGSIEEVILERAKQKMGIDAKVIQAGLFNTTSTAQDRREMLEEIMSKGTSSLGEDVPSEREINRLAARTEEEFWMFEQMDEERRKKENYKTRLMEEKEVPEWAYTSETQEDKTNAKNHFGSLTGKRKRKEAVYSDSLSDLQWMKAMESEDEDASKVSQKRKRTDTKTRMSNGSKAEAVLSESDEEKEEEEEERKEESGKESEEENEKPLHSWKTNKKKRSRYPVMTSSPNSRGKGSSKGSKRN

[7] = molecular target: T7, UBP5 (H2A deubiquitinase, subunit of the PEAT complex) (Arabidopsis thaliana, UniProt O22207 1-924)
T7 sequence (looked up): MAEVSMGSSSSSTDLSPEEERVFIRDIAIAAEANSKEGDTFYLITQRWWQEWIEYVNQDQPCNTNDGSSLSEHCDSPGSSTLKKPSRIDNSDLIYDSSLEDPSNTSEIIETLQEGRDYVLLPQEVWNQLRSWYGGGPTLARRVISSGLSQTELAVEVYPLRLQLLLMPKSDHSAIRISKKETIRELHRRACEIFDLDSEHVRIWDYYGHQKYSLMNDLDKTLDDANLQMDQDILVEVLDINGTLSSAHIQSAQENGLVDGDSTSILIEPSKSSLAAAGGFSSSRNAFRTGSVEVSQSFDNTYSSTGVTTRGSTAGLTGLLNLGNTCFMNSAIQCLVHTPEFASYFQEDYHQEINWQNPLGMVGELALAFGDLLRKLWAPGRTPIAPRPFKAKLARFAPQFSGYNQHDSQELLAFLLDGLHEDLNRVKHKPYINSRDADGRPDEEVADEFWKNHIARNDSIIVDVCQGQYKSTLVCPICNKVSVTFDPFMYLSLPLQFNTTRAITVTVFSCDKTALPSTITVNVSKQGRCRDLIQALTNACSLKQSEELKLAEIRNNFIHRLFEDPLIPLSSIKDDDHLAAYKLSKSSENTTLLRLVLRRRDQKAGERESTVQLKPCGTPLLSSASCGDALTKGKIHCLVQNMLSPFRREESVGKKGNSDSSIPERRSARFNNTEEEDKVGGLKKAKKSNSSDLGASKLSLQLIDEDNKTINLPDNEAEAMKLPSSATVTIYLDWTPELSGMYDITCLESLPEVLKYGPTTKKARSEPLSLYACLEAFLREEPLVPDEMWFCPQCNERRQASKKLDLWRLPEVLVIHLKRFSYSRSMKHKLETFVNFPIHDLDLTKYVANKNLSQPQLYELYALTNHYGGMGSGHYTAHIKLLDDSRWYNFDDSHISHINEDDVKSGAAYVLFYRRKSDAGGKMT

[8] = molecular target: ZF2 (recombinant, pull-down) (Arabidopsis thaliana, UniProt Q9SSW2 1-273)
Sequence of ZF2 (recombinant, pull-down) (Q9SSW2 whole entry): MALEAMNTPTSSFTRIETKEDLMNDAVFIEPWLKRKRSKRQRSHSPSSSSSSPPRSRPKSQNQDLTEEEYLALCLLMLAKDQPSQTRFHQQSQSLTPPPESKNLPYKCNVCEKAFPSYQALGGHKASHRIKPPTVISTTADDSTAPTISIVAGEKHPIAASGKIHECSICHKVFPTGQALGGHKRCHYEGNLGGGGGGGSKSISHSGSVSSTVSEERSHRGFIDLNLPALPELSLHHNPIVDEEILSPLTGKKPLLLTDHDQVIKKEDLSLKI

[9] = molecular target: T8, AL4 (recombinant, pull-down) (Arabidopsis thaliana, UniProt O81488 1-255)
T8 sequence (looked up): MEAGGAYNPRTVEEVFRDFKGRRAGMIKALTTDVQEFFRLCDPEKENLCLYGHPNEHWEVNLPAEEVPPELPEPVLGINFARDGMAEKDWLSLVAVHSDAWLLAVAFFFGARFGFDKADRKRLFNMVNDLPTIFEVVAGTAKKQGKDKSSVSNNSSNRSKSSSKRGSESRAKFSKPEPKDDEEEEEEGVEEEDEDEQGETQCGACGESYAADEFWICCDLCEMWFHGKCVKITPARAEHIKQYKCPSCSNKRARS

binding result [1]: binds
binding result [2]: binds
binding result [3]: binds
binding result [4]: binds
binding result [5]: binds
binding result [6]: binds
binding result [7]: binds
binding result [8]: binds
binding result [9]: binds
B1: AL2 (recombinant, pull-down) (natural protein, Arabidopsis thaliana, UniProt Q9SRM4 1-246, looked up)
chain: MAAAAVSSNPRTVEEIFKDYSARRAALLRALTKDVDDFYSQCDPEKENLCLYGHPNESWEVNLPAEEVPPELPEPALGINFARDGMQRKDWLSLVAVHSDCWLLSVSFYFGARLNRNERKRLFSLINDLPTLFDVVTGRKAMKDNKPSSDSGSKSRNGTKRSIDGQTKSSTPKLMEESYEEEEEEDEHGDTLCGSCGGHYTNEEFWICCDVCERWYHGKCVKITPAKAESIKQYKCPPCCAKKGRQ
